Results on one protein are retold here after article PMC5763115, “Nesprin-2 Interacts with Condensin Component SMC2” (International Journal of Cell Biology, 2017).

The data set deals with the molecule itself. The data set can be described thus: SEC; Nesprin-2-SMC released from GST by thrombin, on a Sephadex G-200 gel filtration column; markers ovalbumin 43 kDa, conalbumin 75 kDa, aldolase 158 kDa; fractions also checked by SDS-PAGE. (In general: In gel filtration, larger molecules generally elute earlier.)

B1: Nesprin-2-SMC (domain or fragment, human, UniProt Q8WXH0 1436-1766, looked up)
chain: NNELLKNIQDVQSQISKIGLKDPTVPAVKHRKKSLIRLDKVLDEYEEEKRHLQEMANSLPHFKDGREKTVNQQCQNTVVLWENTKALVTECLEQCGRVLELLKQYQNFKSILTTLIQKEESVISLQASYMGKENLKKRIAEIEIVKEEFNEHLEVVDKINQVCKNLQFYLNKMKTFEEPPFEKEANIIVDRWLDINEKTEDYYENLGRALALWDKLFNLKNVIDEWTEKALQKMELHQLTEEDRERLKEELQVHEQKTSEFSRRVAEIQFLLQSSEIPLELQVMESSILNKMEHVQKCLTGESNCHALSGSTAELREDLDQAKTQIGMTES
notes: Nesprin-2, human, SMC domain, aa 1436-1766, spectrin repeats 11-13; Calculated molecular weight 38.78 kDa (39 kDa); also called Nesprin-2-SMC domain; SMC polypeptide; source: E. coli XL-1 blue, purified (Glutathione-Sepharose 4B, released from GST by thrombin cleavage); not shown: GST, N-terminal, cleaved
Regarding B1, the binding result was “binds”.
